Measured values: PMC6007489 (Nucleic Acids Research, 2018)
Substitutions are numbered along the chain they refer to.

B1: His–rad1R218A–Rad10 (complex, S. cerevisiae)
chain 1: MSQLFYQGDSDDELQEELTRQTTQASQSSKIKNEDEPDDSNHLNEVENEDSKVLDDDAVLYPLIPNEPDDIETSKPNINDIRPVDIQLTLPLPFQQKVVENSLITEDALIIMGKGLGLLDIVANLLHVLATPTSINGQLKRALVLVLNAKPIDNVRIKEALEELSWFSNTGKDDDDTAVESDDELFERPFNVVTADSLSIEKRRKLYISGGILSITSAILIVDLLSGIVHPNRVTGMLVLNADSLRHNSNESFILEIYRSKNTWGFIKAFSEAPETFVMEFSPLRTKMKELRLKNVLLWPRFRVEVSSCLNATNKTSHNKVIEVKVSLTNSMSQIQFGLMECLKKCIAELSRKNPELALDWWNMENVLDINFIRSIDSVMVPNWHRISYESKQLVKDIRFLRHLLKMLVTSDAVDFFGEIQLSLDANKPSVSRKYSESPWLLVDEAQLVISYAKKRIFYKNEYTLEENPKWEQLIHILHDISHERMTNHLQGPTLVACSDNLTCLELAKVLNASNKKRGVRQVLLNKLKWYRKQREETKKLVKEVQSQDTFPENATLNVSSTFSKEQVTTKRRRTRGASQVAAVEKLRNAGTNVDMEVVFEDHKLSEEIKKGSGDDLDDGQEENAANDSKIFEIQEQENEILIDDGDAEFDNGELEYVGDLPQHITTHFNKDLWAEHCNEYEYVDRQDEILISTFKSLNDNCSLQEMMPSYIIMFEPDISFIRQIEVYKAIVKDLQPKVYFMYYGESIEEQSHLTAIKREKDAFTKLIRENANLSHHFETNEDLSHYKNLAERKLKLSKLRKSNTRNAGGQQGFHNLTQDVVIVDTREFNASLPGLLYRYGIRVIPCMLTVGDYVITPDICLERKSISDLIGSLQNNRLANQCKKMLKYYAYPTLLIEFDEGQSFSLEPFSERRNYKNKDISTVHPISSKLSQDEIQLKLAKLVLRFPTLKIIWSSSPLQTVNIILELKLGREQPDPSNAVILGTNKVRSDFNSTAKGLKDGDNESKFKRLLNVPGVSKIDYFNLRKKIKSFNKLQKLSWNEINELINDEDLTDRIYYFLRTEKEEQEQESTDENLESPGKTTDDNALHDHHNDVPEAPV
chain 2: MNNTDPTSFESILAGVAKLRKEKSGADTTGSQSLEIDASKLQQQEPQTSRRINSNQVINAFNQQKPEEWTDSKATDDYNRKRPFRSTRPGKTVLVNTTQKENPLLNHLKSTNWRYVSSTGINMIYYDYLVRGRSVLFLTLTYHKLYVDYISRRMQPLSRNENNILIFIVDDNNSEDTLNDITKLCMFNGFTLLLAFNFEQAAKYIEYLNL
B2: 6xHis–Saw1 (natural protein, S. cerevisiae, UniProt P39735 1-261, looked up)
chain: MAPSIATVKIARDMVLPLRIFVNRKQILQTNDKTSNKSNATIFEAPLLSNNSIICLKSPNTRIYLSQQDKKNLCDEIKEDLLLIVYELASPEIISSVLSKIRVGHSTDFQINVLPKLFAGADTDNAVTSHIQSVTRLAKFKYKLHYKHKWELDIFINSIKKIANLRHYLMFQTLTLNGFSLNAGPKTLLARKIEKQPQVPNLLIENGDADALDTPVEEDIKPVIEFMYKPVINLGEIIDVHVLHRPRRHKVRTQSKQPQEE

Experiments:
6xHis–Saw1 = molecular target: B2; assay: co-IP
Msh2–Msh3 [1] = molecular target: T1, Msh2–Msh3 (S. cerevisiae, UniProt P25847 1-964; P25336 1-1018); assay: far-Western, overlay or dot blot
T1 sequence (P25847 whole entry, chain 1 of 2): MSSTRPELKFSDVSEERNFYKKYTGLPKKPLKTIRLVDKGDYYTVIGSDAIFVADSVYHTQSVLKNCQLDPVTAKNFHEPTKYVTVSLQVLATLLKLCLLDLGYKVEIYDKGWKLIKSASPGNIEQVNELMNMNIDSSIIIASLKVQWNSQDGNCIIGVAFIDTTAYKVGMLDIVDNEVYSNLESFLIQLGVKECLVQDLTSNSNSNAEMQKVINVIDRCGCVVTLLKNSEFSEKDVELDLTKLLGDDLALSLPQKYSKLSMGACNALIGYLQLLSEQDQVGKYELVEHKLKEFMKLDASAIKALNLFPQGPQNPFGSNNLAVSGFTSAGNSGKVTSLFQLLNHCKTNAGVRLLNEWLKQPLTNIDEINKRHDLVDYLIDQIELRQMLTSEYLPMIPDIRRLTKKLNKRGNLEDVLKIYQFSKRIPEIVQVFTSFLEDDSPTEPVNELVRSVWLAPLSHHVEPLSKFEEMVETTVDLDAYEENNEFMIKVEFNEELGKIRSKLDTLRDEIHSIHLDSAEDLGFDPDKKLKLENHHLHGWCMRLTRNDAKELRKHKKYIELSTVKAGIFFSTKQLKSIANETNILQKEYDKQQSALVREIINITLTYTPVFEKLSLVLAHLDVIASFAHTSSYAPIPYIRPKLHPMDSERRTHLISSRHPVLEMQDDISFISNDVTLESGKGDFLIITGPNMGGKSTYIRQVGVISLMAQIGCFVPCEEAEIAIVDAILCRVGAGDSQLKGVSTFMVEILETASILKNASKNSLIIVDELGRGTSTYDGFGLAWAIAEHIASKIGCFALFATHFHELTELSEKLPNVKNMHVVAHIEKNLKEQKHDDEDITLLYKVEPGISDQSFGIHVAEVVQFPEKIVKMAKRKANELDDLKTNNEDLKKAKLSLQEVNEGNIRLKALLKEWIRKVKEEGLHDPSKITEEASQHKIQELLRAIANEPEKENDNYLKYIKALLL
T1 sequence (P25336 whole entry, chain 2 of 2): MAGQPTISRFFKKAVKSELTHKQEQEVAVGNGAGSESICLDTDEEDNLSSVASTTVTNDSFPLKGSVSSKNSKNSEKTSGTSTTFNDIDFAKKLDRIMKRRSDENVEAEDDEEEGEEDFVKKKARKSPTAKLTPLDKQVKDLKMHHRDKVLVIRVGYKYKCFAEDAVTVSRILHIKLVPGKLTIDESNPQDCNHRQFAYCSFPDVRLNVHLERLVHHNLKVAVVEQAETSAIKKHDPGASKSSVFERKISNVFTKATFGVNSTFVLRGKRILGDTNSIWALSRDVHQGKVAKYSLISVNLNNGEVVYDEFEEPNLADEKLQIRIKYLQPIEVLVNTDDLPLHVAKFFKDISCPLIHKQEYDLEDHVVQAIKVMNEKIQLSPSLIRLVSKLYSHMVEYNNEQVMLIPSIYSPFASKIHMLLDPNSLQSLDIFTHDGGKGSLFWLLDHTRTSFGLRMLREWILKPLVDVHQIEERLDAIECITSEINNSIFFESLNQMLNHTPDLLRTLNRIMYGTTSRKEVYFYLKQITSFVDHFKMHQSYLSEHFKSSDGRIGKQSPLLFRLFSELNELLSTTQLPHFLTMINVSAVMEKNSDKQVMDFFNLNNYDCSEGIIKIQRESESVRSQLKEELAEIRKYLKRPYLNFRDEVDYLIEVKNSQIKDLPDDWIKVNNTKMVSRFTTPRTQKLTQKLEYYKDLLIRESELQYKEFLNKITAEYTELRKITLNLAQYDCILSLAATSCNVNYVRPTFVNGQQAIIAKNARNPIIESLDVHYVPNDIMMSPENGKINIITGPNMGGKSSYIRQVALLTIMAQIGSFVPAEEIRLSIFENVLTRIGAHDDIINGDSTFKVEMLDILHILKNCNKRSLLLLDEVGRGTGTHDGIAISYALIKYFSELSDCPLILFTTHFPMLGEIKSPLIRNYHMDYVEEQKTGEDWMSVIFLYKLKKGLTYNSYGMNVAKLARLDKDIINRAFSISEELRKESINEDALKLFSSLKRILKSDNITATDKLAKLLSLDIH

Msh2–Msh3 [2] = molecular target: T1, Msh2–Msh3; assay: co-IP
His–Rad1–Rad10 = molecular target: T2, His–Rad1–Rad10 (S. cerevisiae, UniProt P06777 1-1100; P06838 1-210); assay: co-IP
T2 sequence (looked up) 1: B1 chain 1 with A218R
T2 sequence (looked up) 2: B1 chain 2

For B1, which “fold immunoprecipitated relative to His–Rad1–Rad10” value (6xHis–Saw1) is on record?
The value was ~3 fold.

Does B1 bind (Msh2–Msh3 [1])?
Result: binds

Does B2 bind (Msh2–Msh3 [2])?
Result: binds

Does B2 bind (His–Rad1–Rad10)?
Result: binds
